Measured values taken from publication PMC4890720 (Methods in molecular biology (Clifton, N.J.), 2012).

Biological target: thioredoxin (1–73) (E. coli, UniProt P0AA25 2-74 = thioredoxin)
Assay: magic angle spinning solid-state NMR

Sequence of thioredoxin (1–73) (P0AA25 2-74): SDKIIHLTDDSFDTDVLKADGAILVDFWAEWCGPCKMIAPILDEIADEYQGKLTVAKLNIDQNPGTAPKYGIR

binding result: binds
Binder: GIPTLLLFKNGEVAATKVGALSKGQLKEFLDANLA (domain or fragment, E. coli, UniProt P0AA25 75-109, looked up) [thioredoxin (74–108)]
